US6348573B1, “Compositions and methods for identifying apoptosis signaling pathway inhibitors and activators” (The Regents of the University of Michigan, priority 1998, dated 2002)

How the values were obtained:
caspase-8 [1] = target: T1, caspase-8 (Homo sapiens, UniProt Q14790); experiment: Caspase-8 enzymatic assay (DEVD-AMC) on immunoprecipitates of ARC co-transfected cells; format: biochemical; details: immunoprecipitated caspase-8 from 293T cells, fluorogenic substrate DEVD-AMC
T1 construct: expressed in transfected cells; host or cells: human 293T cells
Procedure: [293T cell were co-transfected with pcDNA3-caspase-8-AU1 or pcDNA3-caspase-8-mut and pcDNA3-ARC-Flag or pcDNA3]. Caspase-8 in cell extracts was immunoprecipitated with anti-AU1 antibody and immunoprecipitates were incubated with the fluorogenic substrate DEVD-AMC. ◯:pcDNA3 alone; ●:pcDNA3-ARC-HA alone; □:pcDNA3-caspase-8-AU1 alone; ▪:pcDNA3-caspase-8-AU1 and pcDNA3-ARC-HA; ^Δ:pcDNA3-caspase-8-mt-AU1 alone.
(§1) β-galactosidase apoptosis assay and Caspase-8 enzymatic assay: 5×10^5 293T cells were transfected with 0.3 μg of pcDNA3-β-gal plus each expression plasmid in triplicate. Cells were fixed 16 hrs after transfection, stained for β-galactosidase and assayed for morphological features of apoptosis [M. Muira et al., Cell 75:653-660 (1993)]. Statistical significance was determined by one-way ANOVA followed by Student-Neuman-Keuls post-doc comparisons. For caspase-8 enzymatic assay, 1.5×10^6 human 293T cells were co-transfected with pcDNA3, pcDNA3-ARC-Flag, pcDNA3-caspase-8 and pcDNA3-caspase-8-mt by a calcium phosphate method. Total amount of transfected plasmid DNA was always 2.5 μg. 293T cells were harvested 18hr after transfection and lysed with 0.2% NP-40 isotonic lysis buffer. Tagged proteins were immunoprecipitated and caspase activity was measured as described [N. Inohara et al., Proc. Natl. Acad. Sci. USA 94:10717-10722 (1997)].

[2] = target: T2, C-caspase-8-HA (human caspase-8 amino acids 216-496, C-terminal HA tag) (human, UniProt Q14790-4 216-496); experiment: co-immunoprecipitation of caspase-8 deletion mutants from 293T cells, immunoblot
T2 construct: range 216-496; The canonical UniProt entry has 479 residues; also called pcDNA3-C-caspase-8-HA; C-terminal region that contains the catalytic domain of caspase-8; not shown: C-terminal HA tag

293T cells = experiment: β-galactosidase apoptosis assay, ARC co-transfection; format: cell-based, human
Procedure: as §1, with “Briefly, 2 μg of pcDNA3 or pcDNA3-ARC-Flag or -HA was co-transfected with 3 μg of pcDNA3 or caspase expression plasmids. Total amount of transfected plasmid DNA was always 5 μg. 293T cells were harvested after 22 hr and lysed with 0.2% NP-40 isotonic lysis buffer [Z. N. Oltvai et al., Cell 74:609-619 (1993)]. For immunoprecipitation, […] of soluble protein was incubated with 10 μg/ml of polyclonal anti-Flag, monoclonal anti-AU1 or polyclonal anti-HA antibody for 2 hr at 4° C. and tagged proteins were immunoprecipitated with Protein A-Sepharose 4B (Zymed Laboratories Inc., San Francisco, Calif.). Immunoprecipitates were subjected to 12% SDS-polyacrylamide electrophoresis and immunoblotted with anti-Flag, anti-AU1 or anti-HA antibodies. β-galactosidase apoptosis” for “β-galactosidase apoptosis”

[3] = test system: FADD, RAIDD, Bcl-XL, and c-IAP-2; experiment: Association of ARC with other apoptosis regulatory molecules; format: binding; details: data not shown
Procedure: (§2) Briefly, 2 μg of pcDNA3 or pcDNA3-ARC-Flag or -HA was co-transfected with 3 μg of pcDNA3 or caspase expression plasmids. Total amount of transfected plasmid DNA was always 5 μg. 293T cells were harvested after 22 hr and lysed with 0.2% NP-40 isotonic lysis buffer [Z. N. Oltvai et al., Cell 74:609-619 (1993)]. For immunoprecipitation, […] of soluble protein was incubated with 10 μg/ml of polyclonal anti-Flag, monoclonal anti-AU1 or polyclonal anti-HA antibody for 2 hr at 4° C. and tagged proteins were immunoprecipitated with Protein A-Sepharose 4B (Zymed Laboratories Inc., San Francisco, Calif.). Immunoprecipitates were subjected to 12% SDS-polyacrylamide electrophoresis and immunoblotted with anti-Flag, anti-AU1 or anti-HA antibodies.

caspase-3 = target: T3, caspase-3 (Homo sapiens, UniProt P42574); experiment: Co-immunoprecipitation of ARC with caspase-3; format: binding; details: 293T lysates
T3 construct: expressed in transfected cells; host or cells: human 293T cells
T3 sequence (P42574 29-277): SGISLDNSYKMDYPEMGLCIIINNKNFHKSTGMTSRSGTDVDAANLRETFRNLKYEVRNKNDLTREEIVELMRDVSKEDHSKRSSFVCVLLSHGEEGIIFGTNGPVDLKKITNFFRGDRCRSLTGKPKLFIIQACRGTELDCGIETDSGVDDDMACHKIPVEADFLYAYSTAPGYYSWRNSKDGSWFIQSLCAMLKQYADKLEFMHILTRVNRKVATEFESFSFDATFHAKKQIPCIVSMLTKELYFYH
Procedure: as §2

caspase-1 = target: T4, caspase-1 (Homo sapiens, UniProt P29466); experiment: Co-immunoprecipitation of ARC with caspase-1; format: binding; details: 293T lysates
T4 construct: expressed in transfected cells; host or cells: human 293T cells
T4 sequence (P29466 120-404): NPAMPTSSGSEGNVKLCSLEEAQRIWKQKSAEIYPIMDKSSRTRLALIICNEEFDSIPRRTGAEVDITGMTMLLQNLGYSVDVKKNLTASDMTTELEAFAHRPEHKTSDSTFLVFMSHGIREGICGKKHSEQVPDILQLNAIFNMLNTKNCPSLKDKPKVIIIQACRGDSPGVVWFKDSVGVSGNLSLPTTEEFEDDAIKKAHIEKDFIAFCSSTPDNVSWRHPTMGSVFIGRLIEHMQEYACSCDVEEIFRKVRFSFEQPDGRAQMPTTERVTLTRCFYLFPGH
Procedure: as §2

caspase-8 [4] = target: T1, caspase-8; experiment: Co-immunoprecipitation of ARC with caspase-8; format: binding; details: caspase-8 deletion mutant
Procedure: as §2

caspase-8 [5] = experiment: Co-immunoprecipitation of ARC with caspase-8; format: binding, human; details: 293T lysates
Procedure: as §2

T2 sequence (Q14790 199-479 limits assumed): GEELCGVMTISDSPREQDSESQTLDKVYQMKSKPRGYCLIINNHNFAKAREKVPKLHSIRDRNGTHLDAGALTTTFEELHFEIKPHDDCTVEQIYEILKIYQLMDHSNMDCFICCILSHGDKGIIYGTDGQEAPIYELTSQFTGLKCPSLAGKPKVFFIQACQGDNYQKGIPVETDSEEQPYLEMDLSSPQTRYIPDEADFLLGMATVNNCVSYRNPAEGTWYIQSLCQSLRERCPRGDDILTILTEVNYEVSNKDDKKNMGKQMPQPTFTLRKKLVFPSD

enzymatic activity of caspase-8 (caspase-8 [1]): inhibited
binding result [2]: no binding
co-immunoprecipitation with caspase-3 (caspase-3): not
co-immunoprecipitation with caspase-1 (caspase-1): not
co-immunoprecipitation with caspase-8 (caspase-8 [5]): co-immunoprecipitated
B1: human ARC (Apoptosis Repressor with CARD domain), C-terminally Flag- or HA-tagged (other)
chain: MGNAQERPSETIDRERKRLVETLQADSGLLLDALLARGVLTGPEYEALDALPDAERRVRRLLLLVQGKGEAACQELLRCAQRTAGAPDPAWDWQHVGPGYRDRSYDPPCPGHWTPEAPGSGTTCPGLPRASDPDEAGGPEGSEAVQSGTPEEPEPELEAEASKEAEPEPEPEPELEPEAEAEPEPELEPEPDPEPEPDFEERDESEDS
notes: Entire open reading frame expressed in 293T cells; The two tagged constructs are merged here; also called ARC-Flag; ARC-HA; not shown: C-terminal FLAG or HA tag
induction of apoptosis by expression of ARC (293T cells; ARC alone): did not induce apoptosis
apoptosis induced by C. elegans CED-3 (293T cells; co-expression with ARC): inhibited
apoptosis induced by CLARP (293T cells; co-expression with ARC): inhibited
apoptosis induced by FADD (293T cells; co-expression with ARC): inhibited
apoptosis induced by TRADD (293T cells; co-expression with ARC): inhibited
apoptosis induced by caspase-8 (293T cells; co-expression with ARC): inhibited caspase-8-induced killing in a dose-dependent manner
apoptosis induced by stimulation of CD95/Fas receptor (293T cells; co-expression with ARC): partially but significantly inhibited
apoptosis induced by stimulation of TNF-R1 receptor (293T cells; co-expression with ARC): partially but significantly inhibited
apoptosis induced by stimulation of TRAMP/DR3 receptor (293T cells; co-expression with ARC): partially but significantly inhibited
apoptosis mediated by caspase-9 (293T cells; co-expression with ARC): not
association with FADD, RAIDD, Bcl-XL, and c-IAP-2 [3]: did not associate
association with the N-terminal death effector domain (DED) of caspase-8 (caspase-8 [4]): associated
